HA tag and linker = not defined here
T1: human FGFR1 beta (IIIc)-Fc (R&D Systems) (human, UniProt P11362-14 22-285, limits assumed)
T1 construct: Bought reagent; also called FGFR1-Fc; Fc fusion of FGFR1; not shown: Fc domain (detected with anti-human IgG)
T1 sequence (looked up): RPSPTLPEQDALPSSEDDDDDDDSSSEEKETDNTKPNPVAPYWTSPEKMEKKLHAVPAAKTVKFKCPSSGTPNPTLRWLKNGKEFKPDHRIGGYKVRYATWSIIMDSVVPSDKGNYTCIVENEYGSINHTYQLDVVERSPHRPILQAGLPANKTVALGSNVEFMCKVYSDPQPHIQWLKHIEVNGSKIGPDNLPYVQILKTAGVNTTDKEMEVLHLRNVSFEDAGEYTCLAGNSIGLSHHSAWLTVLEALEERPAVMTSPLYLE

B1: yeast-displayed peptide artifact RTTTS (peptide)
chain: {Aga2p-HA tag and linker}-RTTTS-{c‑myc tag}
modifications: reading uncertain
notes: not shown: Aga2p of S. cerevisiae, yeast display fusion partner (pCT vector); HA tag and vector linker; C-terminal c-myc tag
B2: yeast-displayed peptide artifact HTTS (peptide)
chain: {Aga2p-HA tag and linker}-HTTS-{c‑myc tag}
modifications: reading uncertain
notes: as for B1

What was measured:
[1] = target: FGFRs expressed on NIH3T3 cells; assay: cell-based or functional assay
[2] = target: FGFRs expressed on NIH3T3 cells; assay: equilibrium binding titration on NIH3T3 cells at 4 C, flow cytometry with anti-His antibody
[3] = target: T1, human FGFR1 beta (IIIc)-Fc (R&D Systems); assay: flow cytometry, yeast-displayed peptide with soluble FGFR1-Fc
Description: FIG. 15. Non-binding of peptide artifacts to FGFR1-Fc. Yeast cells expressing RTTTS or HTTS peptides on their cell surface were incubated with 10 nM FGFRT-Fc. Cells were stained with fluorescent antibodies for expression (α-c-myc) and binding (α-FGFR1-Fc).
50,000 induced yeast cells were incubated with various concentrations of FGFR1-Fc in phosphate-buffered saline with 1 g/L BSA (PBSA) at room temperature. Cells were incubated in sufficiently large volumes to avoid ligand depletion and long enough times (typically 3 to 24 hours) to reach equilibrium. During the last 30 minutes of incubation, yeast cells were incubated with 1:2500 dilution of chicken anti-c-Myc (Invitrogen) in PBSA. Yeast were pelleted, washed, then incubated with 1:200 dilution of secondary antibodies on ice for 10 min: anti-Human IgG-FITC (Sigma Aldrich) against FGFR1-Fc and anti-chicken-IgY-PE (Santa Cruz Biotechnology) against anti-c-myc. Yeast were washed, pelleted, and resuspended in PBSA immediately before analysis by flow cytometry using EMD Millipore Guava EasyCyte. Flow cytometry data were analyzed using FlowJo (v7.6.1). Binding curves were plotted and Kd values were obtained using GraphPad Prism 6.

Molecule | inhibition of ERK phosphorylation induced by 1 nM wild type FGF1 in NIH3T3 cells (Western blot against phosphoERK), IC50 [1] | Kd [2] | binding result [3]
recombinant soluble FGF1 L131R mutant with N-terminal 6x His tag (E. coli, pBAD/His B) (from UniProt P05230 16-155) (ligand) | 1 nM | 10 nM | 
recombinant soluble wild-type FGF1 with N-terminal 6x His tag (E. coli, pBAD/His B) (from UniProt P05230 16-155) (ligand) |  | 10 nM | 
B1 |  |  | no binding (tested: 10 nM)
B2 |  |  | no binding (tested: 10 nM)
